{
  "source": "patent US20110020802",
  "about": "“NUCLEIC ACIDS, METHODS AND KITS FOR THE DIAGNOSIS OF DYT6 PRIMARY TORSION DYSTONIA” (Mount Sinai School of Medicine of New York University, published 2011)",
  "target": "T1, THAP1 wild type (Homo sapiens, UniProt Q9NVV9 SEQ:1-213)",
  "T1 sequence": "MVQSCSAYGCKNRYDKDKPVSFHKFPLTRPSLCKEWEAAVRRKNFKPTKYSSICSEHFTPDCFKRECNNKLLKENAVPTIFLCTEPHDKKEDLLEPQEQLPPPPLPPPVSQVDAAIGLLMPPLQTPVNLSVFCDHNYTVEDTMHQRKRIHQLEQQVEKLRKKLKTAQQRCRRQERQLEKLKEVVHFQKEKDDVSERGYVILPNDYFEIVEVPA",
  "experiment": "EMSA; specific band supershifted by anti-THAP1 and competed by >200x unlabeled THABS; 150 mM KCl, 20 mM Tris pH 7.5, poly(dI-dC), room temperature",
  "details": "tags: N-terminal V5 (pcDNA3.1/nV5); label: 5'-32P",
  "procedure": "Double-stranded oligonucleotide was prepared by annealing synthetic complementary oligonucleotides (5′-[…]-3′ (SEQ ID NO: 17) and the reverse complement of this oligo 5′ […]-3′ (SEQ ID NO: 48)) in 20 mM Tris/HCl (pH 7.5), 10 mM MgCl2, 50 mM NaCl, 1 mM dithiothreitol (DTT) by heating for 5 min at 95° c, and cooling to room temperature overnight. Probes were end-labeled with [gamma-³²P]ATP using T4 polynucleotide kinase. Unincorporated nucleotides were removed by column chromatography (illustra MicroSpin™ G-25 Columns, GE Healthcare), according to the manufacturer's protocol. […] Following buffer at 150 V at room temperature, gels were dried and exposed to storage Phosphor screens that were scanned and analyzed using a Typhoon phosphorimager (GE Healthcare).\nThe two constructs were expressed in an in vitro transcription/translation (IVTT) system and assessed by western for equal levels of protein expression (FIG. 4A). When the radiolabeled THABS probe was incubated with the IVTT wild-type THAP1, a major shifted band was detected (FIG. 4B, lane 6, arrowhead). […]",
  "data": [
    {"binder": "THABS probe (dsDNA) DNA 1: AGCAAGTAAGGGCAACTACTTCAT DNA 2: ATGAAGTAGTTGCCCTTACTTGCT", "values": [
      {"measurement": "binding result", "result": "binds"}
    ]}
  ]
}
